This is an account of results in the Human Domainome abundance scans (Beltran et al. 2025).

± gives the uncertainty stated by the source.

The nature of the data set: abundance fitness (aPCA) (normalised: wild type 0, dead -1); higher = more abundant; growth selection in yeast, the domain comes from the species named. Conditions: Homo sapiens.
“Transcriptional activator Myb T145V, P10242” gave an abundance fitness of -0.007 ± 0.068.

“Transcriptional activator Myb T145W, P10242” had an abundance fitness of -0.318 ± 0.1.

As for “Transcriptional activator Myb T145Y, P10242”, the abundance fitness is -0.114 ± 0.23.

For the substance “Transcriptional activator Myb T148A, P10242”, the abundance fitness was -0.286 ± 0.039.

For the substance “Transcriptional activator Myb T148D, P10242”, the abundance fitness was -0.348 ± 0.043.

“Transcriptional activator Myb T148E, P10242”: the abundance fitness is -0.443 ± 0.065.

The substance “Transcriptional activator Myb T148F, P10242” returned an abundance fitness of -0.726 ± 0.046.

“Transcriptional activator Myb T148G, P10242” came in with an abundance fitness of -0.31 ± 0.038.

In turn, “Transcriptional activator Myb T148H, P10242” displayed an abundance fitness of -0.556 ± 0.045.

In turn, “Transcriptional activator Myb T148K, P10242” gave an abundance fitness of -0.212 ± 0.057.

For the substance “Transcriptional activator Myb T148L, P10242”, the abundance fitness is -0.505 ± 0.036.

Substance “Transcriptional activator Myb T148M, P10242” displayed an abundance fitness of -0.462 ± 0.052.

“Transcriptional activator Myb T148N, P10242” came in with an abundance fitness of -0.271 ± 0.043.

“Transcriptional activator Myb T148P, P10242” showed an abundance fitness of -0.597 ± 0.045.

For the substance “Transcriptional activator Myb T148Q, P10242”, the abundance fitness was -0.437 ± 0.055.

Substance “Transcriptional activator Myb T148R, P10242” registered an abundance fitness of -0.307 ± 0.035.

Substance “Transcriptional activator Myb T148S, P10242” gave an abundance fitness of -0.004 ± 0.034.

In the case of “Transcriptional activator Myb T148W, P10242”, the abundance fitness was -0.901 ± 0.058.

As to “Transcriptional activator Myb T148Y, P10242”, the abundance fitness is -0.766 ± 0.05.

“Transcriptional activator Myb T177A, P10242” came in with an abundance fitness of -0.137 ± 0.063.

As for “Transcriptional activator Myb T177C, P10242”, the abundance fitness was -0.138 ± 0.075.

“Transcriptional activator Myb T177D, P10242” showed an abundance fitness of 0.077 ± 0.095.

Substance “Transcriptional activator Myb T177E, P10242” returned an abundance fitness of -0.013 ± 0.069.

As for “Transcriptional activator Myb T177F, P10242”, the abundance fitness is -0.79 ± 0.18.

Consider “Transcriptional activator Myb T177G, P10242”, for which the abundance fitness was -0.12 ± 0.043.

Regarding “Transcriptional activator Myb T177I, P10242”, the abundance fitness was -0.477 ± 0.093.

The substance “Transcriptional activator Myb T177K, P10242” had an abundance fitness of -0.204 ± 0.092.

“Transcriptional activator Myb T177L, P10242” gave an abundance fitness of -0.42 ± 0.068.

In the case of “Transcriptional activator Myb T177M, P10242”, the abundance fitness is -0.44 ± 0.093.

Substance “Transcriptional activator Myb T177N, P10242” registered an abundance fitness of -0.038 ± 0.12.

The substance “Transcriptional activator Myb T177Q, P10242” came in with an abundance fitness of -0.183 ± 0.084.

For the substance “Transcriptional activator Myb T177R, P10242”, the abundance fitness was -0.267 ± 0.047.

For “Transcriptional activator Myb T177S, P10242”, the abundance fitness was -0.003 ± 0.066.

In turn, “Transcriptional activator Myb T177V, P10242” returned an abundance fitness of -0.371 ± 0.062.

Substance “Transcriptional activator Myb T177W, P10242” registered an abundance fitness of -0.533 ± 0.073.

“Transcriptional activator Myb T177Y, P10242”: the abundance fitness was -0.558 ± 0.17.

“Transcriptional activator Myb T188A, P10242” registered an abundance fitness of -0.107 ± 0.046.

As for “Transcriptional activator Myb T188C, P10242”, the abundance fitness is -0.037 ± 0.088.

“Transcriptional activator Myb T188D, P10242” displayed an abundance fitness of -0.015 ± 0.057.

For “Transcriptional activator Myb T188E, P10242”, the abundance fitness came out at 0.016 ± 0.056.

In the case of “Transcriptional activator Myb T188F, P10242”, the abundance fitness is -0.214 ± 0.14.

“Transcriptional activator Myb T188G, P10242”: the abundance fitness was -0.058 ± 0.032.

In the case of “Transcriptional activator Myb T188H, P10242”, the abundance fitness was -0.093 ± 0.1.

Substance “Transcriptional activator Myb T188I, P10242” yielded an abundance fitness of 0.001 ± 0.092.

“Transcriptional activator Myb T188K, P10242” came in with an abundance fitness of -0.115 ± 0.061.

In turn, “Transcriptional activator Myb T188L, P10242” displayed an abundance fitness of -0.049 ± 0.053.

Turning to “Transcriptional activator Myb T188M, P10242”, the abundance fitness came to 0.035 ± 0.08.

“Transcriptional activator Myb T188N, P10242” showed an abundance fitness of -0.204 ± 0.11.

In the case of “Transcriptional activator Myb T188P, P10242”, the abundance fitness is -0.268 ± 0.099.

Substance “Transcriptional activator Myb T188Q, P10242” returned an abundance fitness of -0.089 ± 0.078.

Turning to “Transcriptional activator Myb T188R, P10242”, the abundance fitness was -0.166 ± 0.04.

As to “Transcriptional activator Myb T188S, P10242”, the abundance fitness was -0.048 ± 0.053.

In the case of “Transcriptional activator Myb T188V, P10242”, the abundance fitness was -0.012 ± 0.044.

The substance “Transcriptional activator Myb T188W, P10242” showed an abundance fitness of -0.093 ± 0.054.

In turn, “Transcriptional activator Myb T188Y, P10242” returned an abundance fitness of 0.034 ± 0.13.

Regarding “Transcriptional activator Myb V193A, P10242”, the abundance fitness was -0.074 ± 0.069.

“Transcriptional activator Myb V193C, P10242” gave an abundance fitness of -0.138 ± 0.15.

On to “Transcriptional activator Myb V193D, P10242”, for which the abundance fitness was -0.166 ± 0.087.

In the case of “Transcriptional activator Myb V193E, P10242”, the abundance fitness is -0.138 ± 0.079.

In turn, “Transcriptional activator Myb V193F, P10242” returned an abundance fitness of -0.091 ± 0.21.

Substance “Transcriptional activator Myb V193G, P10242” yielded an abundance fitness of -0.041 ± 0.051.

“Transcriptional activator Myb V193H, P10242”: the abundance fitness is -0.033 ± 0.13.

“Transcriptional activator Myb V193I, P10242” gave an abundance fitness of -0.066 ± 0.1.

Substance “Transcriptional activator Myb V193K, P10242” came in with an abundance fitness of -0.154 ± 0.14.

As for “Transcriptional activator Myb V193L, P10242”, the abundance fitness is -0.089 ± 0.089.

On to “Transcriptional activator Myb V193N, P10242”, for which the abundance fitness was -0.032 ± 0.26.

For the substance “Transcriptional activator Myb V193P, P10242”, the abundance fitness is -0.198 ± 0.14.

Substance “Transcriptional activator Myb V193Q, P10242” gave an abundance fitness of -0.14 ± 0.16.
